Legend:
Test in all cases: cell-based or functional assay
[1] = biological target: CSF-1R of cynomolgous monocytes (cynomolgous)
[2] = biological target: human mutant CSF-1R L301S Y969F (human) (UniProt P07333)
[3] = biological target: human wildtype CSF-1R (full-length) (human) (UniProt P07333)

% inhibition 10 µg/ml antibody concentration (BeWo cells, CSF-1 induced growth) [3] | Substance | % survival (cynomolgous monocytes with huCSF-1, 5 µg/ml antibody) [1] | Mutant CSF-1R IC30 (cell viability, CellTiterGlo, 3D culture) [2] | Mutant CSF-1R IC50 (cell viability, CellTiterGlo, 3D culture) [2] | wtCSF-1R IC30 (cell viability, CellTiterGlo, 3D culture) [3] | wtCSF-1R IC50 (cell viability, CellTiterGlo, 3D culture) [3]
39% | Anti CSF-1R SC 2-4A5 (Santa Cruz Biotechnology, US) (antibody) | 31% | 2.56 µg/mL | 10 µg/mL | 16.6 µg/mL | 10 µg/mL
 | goat polyclonal anti-CSF-1R antibody ab10676 (abcam) |  | > 20 µg/mL |  | 14.2 µg/mL | 
